Laboratory results: article PMC6625990 (2019)
No end group written: not given here. *: point of attachment. Biotin = O=C1N[C@H]2[C@H](CS[C@H]2CCCCC(=O)*)N1

T1: bovine Ric8A1–492 (bovine, UniProt Q5E9J8 1-492)
T1 chain: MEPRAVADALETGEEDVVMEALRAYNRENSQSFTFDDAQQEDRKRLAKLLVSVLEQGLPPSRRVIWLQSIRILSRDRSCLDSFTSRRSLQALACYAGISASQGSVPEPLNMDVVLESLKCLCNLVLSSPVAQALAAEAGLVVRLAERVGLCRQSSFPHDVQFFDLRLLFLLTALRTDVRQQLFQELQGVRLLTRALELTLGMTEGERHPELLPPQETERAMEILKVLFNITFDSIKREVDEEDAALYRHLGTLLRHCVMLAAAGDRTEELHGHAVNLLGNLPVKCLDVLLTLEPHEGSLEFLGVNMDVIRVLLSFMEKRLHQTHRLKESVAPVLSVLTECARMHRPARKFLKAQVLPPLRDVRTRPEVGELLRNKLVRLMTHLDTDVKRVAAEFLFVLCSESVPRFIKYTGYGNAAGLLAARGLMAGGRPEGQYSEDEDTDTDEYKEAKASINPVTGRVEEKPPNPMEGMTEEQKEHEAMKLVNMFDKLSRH

B1: Gαs363–380 (peptide)
peptide: Biotin-NDCRDIIQRMHLRQYELL
B2: peptide C1 (peptide)
peptide: Biotin-NDCRDIIQRMHLRQCGLF
modifications: cysteine pairing not given here
B3: peptide C2 (peptide)
peptide: Biotin-NDCRDIIIRMNLRQCGLF
modifications: cysteine pairing not given here

Molecular target: T1, bovine Ric8A1–492
Assay: BLI

In order of rising Kd:
1. B3  0.063 µM
2. B1  4.4 µM
3. B2  4.7 µM
